Assay results: article PMC8927860, “Completing the family of human Eps15 homology domains: Solution structure of the internal Eps15 homology domain of γ‐synergin” (Protein Science : A Publication of the Protein Society, 2022)
“Also recorded” adds a separate entry of the source. Ends that are not written are not given here.

T1: EH domain of γ‐synergin (EHγ, residues 279–388) (Homo sapiens, UniProt Q9UMZ2)
T1 construct: His-tag with TEV cleavage site (N, cleaved yes); made in house; host or cells: Escherichia coli BL21(DE3)
T1 sequence (Q9UMZ2 279-388): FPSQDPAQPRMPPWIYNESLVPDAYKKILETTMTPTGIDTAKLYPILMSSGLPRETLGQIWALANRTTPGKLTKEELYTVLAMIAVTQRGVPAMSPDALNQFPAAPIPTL

T2: EH domain of human γ-synergin, longest construct (residues 279–388) (human, UniProt Q9UMZ2 279-388)
T2 chain: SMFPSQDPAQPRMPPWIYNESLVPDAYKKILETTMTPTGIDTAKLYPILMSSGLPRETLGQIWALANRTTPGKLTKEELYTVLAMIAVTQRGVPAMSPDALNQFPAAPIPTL

T3: EH domain of human γ-synergin, longest construct (residues 279–388) (human, UniProt Q9UMZ2 279-388)
T3 construct: two additional residues (Serine-Methionine) left at the N-terminus by the vector pNIC28-Bsa4 after TEV cleavage of the tag; γ-synergin, human, residues 279-388 (EH domain with N- and C-terminal structured extensions); also called EHγ; EHγ domain; source: E. coli BL21(DE3), purified (Ni-IMAC, TEV cleavage, SEC on Superdex 75); 15N-labelled in M9 medium for NMR; not shown: His tag, N-terminal, …
T3 sequence: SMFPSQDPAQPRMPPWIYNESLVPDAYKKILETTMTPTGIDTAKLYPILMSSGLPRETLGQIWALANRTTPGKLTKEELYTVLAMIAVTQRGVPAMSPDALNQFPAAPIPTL


What was measured:
[1] = biological target: T1, EH domain of γ‐synergin (EHγ, residues 279–388); assay: Isothermal titration calorimetry of SCAMP1 fragments and peptides with EHγ; format: binding; settings: ITC; for ∆H / ∆S / N (stoichiometry) / KD: 20 mM Tris, 100 mM NaCl, 2 mM CaCl2 pH 7.5, 20°C, one site binding model; for ∆H / ∆S / KD: n.b. = no binding; for N (stoichiometry) / KD: VP-ITC, 50–200 μM EHγ in cell, ligand 700–2000 μM
Method: ITC measurements were performed on a VP‐ITC instruments (GE Healthcare, Chalfont St. Giles, UK). The calorimetric cell (with a total cell volume of 1,400 μl) contained 50–200 μM EHγ in 20 mM Tris, 100 mM NaCl, 2 mM CaCl2 pH 7.5. SCAMP1 fragments and peptides A, B, C at 700–2000 μM were titrated into the cell at 20°C. The heat generated after each ligand injection was obtained by integration of the calorimetric signal. Resulting binding isotherms were analyzed according to an one site binding model using the Origin software (OriginLab Corp., Northampton, MA, USA).

[2] = biological target: T1, EH domain of γ‐synergin (EHγ, residues 279–388); assay: Analytical size exclusion chromatography of EHγ–SCAMP1″ complex; format: binding; settings: complex compared with isolated EHγ and SCAMP1″; 100 μM EHγ and/or 100 μM SCAMP 1–52, Superdex 200 5/150 GL, 20 mM Tris pH 7.5, 100 mM NaCl, 2 mM CaCl2, 4°C
Method: The quality and oligomeric state of the EHγ construct was assessed on an analytical gel filtration column (Superdex 75 5/150 GL, GE Healthcare). To guarantee reproducible and reliable gel filtration runs, an ÄKTAmicro™ (GE Healthcare) was coupled to an auto sampler, which automatically injected with high‐precision 25 μl of protein sample.[36] Analytical gel filtration runs were performed in duplicates in the cold room at a flow rate of 0.2 ml/min in gel filtration buffer (20 mM Tris pH 7.5, 100 mM NaCl, 2 mM CaCl2). The used EHγ construct was injected spanning a concentration range of 10–1,000 μM. The column has been calibrated with protein standards ranging from 6.5 to 75 kDa. Interactions between EHγ and the SCAMP 1–52 fragment were also probed using this analytical gel filtration setup; the proteins alone or the potential complex (at concentrations of 100 μM EHγ and/or 100 μM SCAMP 1–52) were applied to a Superdex™ 200 5/150 GL analytical gel filtration column and analyzed. Analytical gel filtration runs were performed at 4°C at a flow rate of 0.2 ml/min in the gel filtration buffer.

[3] = biological target: T2, EH domain of human γ-synergin, longest …; assay: ITC
[4] = biological target: T3, EH domain of human γ-synergin, longest …; assay: ITC; EHγ 50–200 μM in the cell, SCAMP1 fragments and peptides A, B, C at 700–2000 μM titrated in; 20 mM Tris, 100 mM NaCl, 2 mM CaCl2 pH 7.5, 20°C; one site binding model; settings: both partners purified
[5] = biological target: T3, EH domain of human γ-synergin, longest …; assay: NMR titration; unlabelled peptide added stepwise to 15N-labelled EHγ, 1H-15N HSQC, up to n = 2 (Pep A, C) and n = 3.2 (Pep B); 20 mM Tris pH 7.5, 100 mM NaCl, 2 mM CaCl2, 10% D2O, 298 K; joint fit of I324, L325, W339 to a one site binding model; settings: both partners purified

Molecule	∆H [1]	∆S [1]	N (stoichiometry) [1]	Kd [3]	also measured
ADPDLNNPFKDPSVTY-NH2 [Peptide B]	-12.0 ± 1.5 kcal/mol	-23.3 cal/mol/deg	1.1 ± 0.2		
GLDEYNPFSDSRT-NH2 [Peptide C]	-22.9 ± 2.7 kcal/mol	-59.8 cal/mol/deg	1.0 ± 0.1		
SCAMP1″: NPF repeat rich fragment of SCAMP1 possessing three NPF-motifs (residues 1–52) (MSDFDSNPFADPDLNNPFKDPSVTQVTRNVPPGLDEYNPFSDSRTPPPGGVK; UniProt O15126 1-52, looked up, fragment)			0.33 ± 0.01		enthalpic/entropic contribution to binding (in words) ([1]; SCAMP1″ (three NPF-motifs) compared to sum of / individual peptides A, B, C): no enthalpic gain; also recorded: largely reduced entropic penalty; complex formation by SEC (elution) [2]: lower retention volume
SDFDSNPFADPDLNY-NH2 [Peptide A]	-21.1 ± 2.4 kcal/mol	-55.2 cal/mol/deg	1.2 ± 0.1		
SCAMP1 (protein, N-terminal cytosolic SCAMP1 construct, residues 1-130 (NPF repeats plus coiled coil, no TM helices); Ser-Met left at the N-terminus after TEV cleavage is omitted; human inferred from the hORFeome source) MSDFDSNPFADPDLNNPFKDPSVTQVTRNVPPGLDEYNPFSDSRTPPPGGVKMPNVPNTQPAIMKPTEEHPAYTQIAKEHALAQAELLKRQEELERKAAELDRREREMQNLSQHGRKNNWPPLPSNFPVG				9 µM	
SCAMP1: N-terminal SCAMP1 construct devoid of transmembrane helices, comprising NPF repeat rich motifs and coiled coil (residues 1–130) (protein, UniProt O15126 1-130, looked up, fragment) MSDFDSNPFADPDLNNPFKDPSVTQVTRNVPPGLDEYNPFSDSRTPPPGGVKMPNVPNTQPAIMKPTEEHPAYTQIAKEHALAQAELLKRQEELERKAAELDRREREMQNLSQHGRKNNWPPLPSNFPVG	-7.5 ± 1.1 kcal/mol	-2.3 cal/mol/deg	0.38 ± 0.04		∆H ([1]; listed as SCAMP1’): n.b.; ∆S ([1]; listed as SCAMP1’): n.b.; ∆H ([1]; listed as SCAMP1’’): -41.3 ± 1.3 kcal/mol; ∆S ([1]; listed as SCAMP1’’): -118.0 cal/mol/deg; N (stoichiometry) ([1]; listed as SCAMP1’): n.b.; N (stoichiometry) ([1]; listed as SCAMP1’’): 0.33 ± 0.01; KD ([1]; listed as SCAMP1’): n.b.; KD ([1]; listed as SCAMP1’’): 9.9 ± 0.4 µM
SCAMP1′: coiled coil domain of N-terminal SCAMP1, devoid of NPF-repeats (residues 65–130) (protein, UniProt O15126 65-130, looked up, fragment) KPTEEHPAYTQIAKEHALAQAELLKRQEELERKAAELDRREREMQNLSQHGRKNNWPPLPSNFPVG			n.b.		KD [1]: n.b.

Second part, led by results:

∆H [1]	∆S [1]	N (stoichiometry) [1]	Kd [3]	Molecule	also measured
			9.9 µM	SCAMP1″, NPF repeat rich N-terminal fragment of secretory carrier membrane protein 1 (residues 1–52) (domain or fragment, human (hORFeome collection), two additional residues (Serine-Methionine) left by the vector pNIC28-Bsa4 after TEV cleavage (same cloning procedure as for EHγ); secretory carrier membrane protein 1 (SCAMP1), residues 1-52, with three NPF repeats; gene from the hORFeome collection; also called SCAMP 1–52 fragment; NPF-repeats from the N-terminal domain of SCAMP1; source: E. coli BL21(DE3), purified (Ni-IMAC, TEV cleavage, …)) SMMSDFDSNPFADPDLNNPFKDPSVTQVTRNVPPGLDEYNPFSDSRTPPPGGVK	binding result [4]: binds
			140 µM	ADPDLNNPFKDPSVTY-NH2 [peptide B, SCAMP1 derived peptide with a single NPF-repeat]	Kd [5]: 120 ± 30 µM
			250 µM	SDFDSNPFADPDLNY-NH2 [peptide A, SCAMP1 derived peptide with a single NPF-repeat]	Kd [5]: 110 ± 10 µM
			90 µM	GLDEYNPFSDSRT-NH2 [peptide C, SCAMP1 derived peptide with a single NPF-repeat]	Kd [5]: 30 ± 20 µM
